Measured values reported in publication PMC2606095 (Chemistry & biology, 2008).
Non-standard residues stand in square brackets, D forms with d. No end group written: not given here. pY = N[C@@H](Cc1ccc(OP(=O)(O)O)cc1)C(=O)O

T1: PTB domain of Shc (human)
T1 sequence (P29353 whole entry, looked up): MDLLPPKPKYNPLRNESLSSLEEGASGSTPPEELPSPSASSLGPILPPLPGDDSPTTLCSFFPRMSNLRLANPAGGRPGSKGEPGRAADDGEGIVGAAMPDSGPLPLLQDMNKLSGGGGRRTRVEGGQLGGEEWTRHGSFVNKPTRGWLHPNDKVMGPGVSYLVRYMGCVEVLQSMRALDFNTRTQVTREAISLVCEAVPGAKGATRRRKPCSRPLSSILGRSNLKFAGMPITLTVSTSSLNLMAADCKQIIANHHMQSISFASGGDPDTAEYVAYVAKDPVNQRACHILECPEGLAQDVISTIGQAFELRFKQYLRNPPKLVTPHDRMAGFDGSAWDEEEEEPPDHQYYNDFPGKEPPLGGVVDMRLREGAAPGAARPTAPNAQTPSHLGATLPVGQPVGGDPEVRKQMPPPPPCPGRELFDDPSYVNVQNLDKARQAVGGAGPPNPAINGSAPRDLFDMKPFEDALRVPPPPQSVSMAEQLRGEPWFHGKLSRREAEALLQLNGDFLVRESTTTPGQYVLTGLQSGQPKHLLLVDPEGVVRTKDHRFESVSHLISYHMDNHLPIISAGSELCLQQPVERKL

T2: core domain of Signal Transducer and Activator of Transcription 1 (STAT1) (human)
T2 chain: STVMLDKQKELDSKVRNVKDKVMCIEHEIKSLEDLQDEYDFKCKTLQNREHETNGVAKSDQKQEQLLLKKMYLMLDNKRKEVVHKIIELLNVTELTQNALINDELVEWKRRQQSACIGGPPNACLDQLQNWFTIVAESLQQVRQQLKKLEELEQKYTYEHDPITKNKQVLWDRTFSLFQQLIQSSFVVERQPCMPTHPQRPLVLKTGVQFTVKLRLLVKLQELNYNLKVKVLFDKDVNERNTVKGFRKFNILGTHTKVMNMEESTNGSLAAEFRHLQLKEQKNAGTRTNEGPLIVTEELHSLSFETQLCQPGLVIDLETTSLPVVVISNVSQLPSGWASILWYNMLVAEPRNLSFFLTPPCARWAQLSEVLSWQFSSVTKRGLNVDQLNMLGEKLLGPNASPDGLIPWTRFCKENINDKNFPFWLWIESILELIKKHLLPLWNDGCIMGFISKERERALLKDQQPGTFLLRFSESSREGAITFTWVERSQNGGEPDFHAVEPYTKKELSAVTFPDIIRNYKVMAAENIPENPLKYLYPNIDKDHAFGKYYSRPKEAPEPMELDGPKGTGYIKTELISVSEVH


Tests used:
[1] = target: T1, PTB domain of Shc (human); assay: peptide or protein array
[2] = target: T2, core domain of Signal Transducer and …; assay: peptide or protein array

Binder	Kd [1]	Kd [2]
{5(6)‑TAMRA}-AKKAFDNPD[pY]WNHSLPPD [ErbB4-1242 phosphopeptide]	< 1000 nM	–
{5(6)‑TAMRA}-DLQALDNPE[pY]HNASNGPD [ErbB4-1188 phosphopeptide]	< 1000 nM	–
{5(6)‑TAMRA}-QAFNIPPPI[pY]TSRARIDD [ErbB4-1035 phosphopeptide]	–	1550 nM
{5(6)‑TAMRA}-VQEDSSTQR[pY]SADPTVFD [ErbB4-1128 phosphopeptide]	–	2060 nM
